{"source": "patent US5753621A", "about": "“Pulmonary surfactant protein fragments” (Abbott Laboratories, priority 1995, dated 1998)", "molecules": {"B1": {"name": "SP-B(1-78): complete SP-B surfactant protein having 78 amino acid residues, used as control (protein, UniProt P07988 201-279, looked up)", "Pulmonary …": "FPIPLPYCWLCRALIKRIQAMIPKGALAVAVAQVCRVVPLVAGGICQCLAERYSVILLDTLLGRMLPQLVCRLVLRCSM", "modifications": "Pulmonary surfactant-associated protein B", "notes": "complete SP-B surfactant protein having 78 amino acid residues, used as control"}}, "format_in_all_cases": "physicochemical", "key": {"[1]": {"experiment": "Dynamic surface tension versus compressed surface area, modified Wilhelmy Surface Balance (Langmuir Trough)", "conditions": "peptide 0.5 mg/ml (~2% of solids) in DPPC:PG:PA 68:22:9; 675 ug phospholipid on 445 sq. cm trough; recorded during seven complete cycles", "description": "(§1) Prior to testing for surface activity, the synthetic fragments were admixed with lipids. A lipid mixture consisting of 68% 1,2-dipalmitoyl-sn-phosphatidylcholine (DPPC), 22% egg phosphatidylglycerol (PG) and 9% palmitic acid on a weight basis was prepared by dissolving the lipids in chloroform:methanol (2:1). The required amount of peptide fragment was dissolved in methanol and heated to 60° C. for 10 minutes. The peptide solution was then added to the lipid mixture prewarmed to 45° C. for ten minutes. The samples were mixed at 45° C. by gentle swirling at 100 revolutions per minute on a Buchi rotary evaporator. The organic solvents were then evaporated at 45° C. by increasing the vacuum in 100 torr increments every five minutes until most of the solvent was removed. Final vacuum was between 150-200 torr. Following evaporation, the solids were then suspended in 10% ethanol prewarmed to 45° C. and which was prepared using deionized distilled water. The suspension was gently mixed with vortexing and placed back under vacuum at 600 torr with a repeat of the vacuum ramping process. Final vacuum for the ethanol removal was 50 torr. Following complete removal of ethanol the suspension was diluted with aqueous 0.15M NaCl at 45° C. to yield an admixture with a phospholipid concentration of 25 mg/ml. The peptide/lipid admixtures were formed at final peptide concentrations of 0.5 mg/ml (equivalent to 2% of solids concentration).\nThe dynamic surface tension lowering properties of the peptide/lipid admixtures were studied using a modified Wilhelmy Surface Balance (Langmuir Trough). The instrument consists of an all Teflon trough and movable Teflon ribbon (dam) barrier system which completely contains and defines a variable surface area. Surface area was varied through the use of a constant rate reversible 3-phase motor to drive the Teflon barrier. A Cahn 2000 electrobalance (Cahn Instruments, Cerittos, Calif.) with a sandblasted 1 cm platinum plate and stainless steel hangdown wire was employed to determine the surface tension at the liquid-air interface. The entire apparatus was situated in a thermostated incubator set at 45° C. Surface area-surface tension measurements were made by adding 950 ml of 0.15M NaCl to the trough. Subphase temperature was controlled during the measurements at 36°-38° C.\nFor each experiment 27 ul of peptide/lipid admixture was applied in a random array of 13 droplets to the surface of the temperature controlled subphase and allowed to spread spontaneously for 3 minutes. (The 27 ul application corresponds to 675 ug of phospholipid). The trough surface area was then cycled from a maximum (445 sq. cm) to a minimum (178 sq. cm) surface area and back to maximum at a cycling rate of 3 cycles/min (compression ratio 2.5:1). The dynamic surface tension versus surface area was recorded for 7 complete compression-expansion cycles for each application."}, "[2]": {"experiment": "Adsorption capacity, modified Wilhelmy surface balance", "conditions": "measured after three (3) minutes spreading time; peptide 0.5 mg/ml (~2% of solids)", "description": "as §1\nA procedure similar to that described by Notter, et al., Pediatric Res. 16, 515-519 (1982) was employed to determine the absorption rate in the absence of diffusion resistance. The modified Wilhelmy surface balance as described above was used. However, instead of using a Langmuir trough, a round Teflon dish (5.1 cm diameter) was employed. The subphase, 70 ml of 0.15M NaCl, was allowed to equilibrate to 37° C. in the incubator and was continuously stirred with a Teflon coated magnetic stirrer. An aliquot of the peptide/lipid fragment admixture containing 5 mg of total phospholipid was dispersed in 10 ml of 0.15M NaCl by vortexing for 10 seconds. This dispersion was then added to the saline subphase. Surface tension lowering was monitored using a strip chart recorder connected to the electro-balance output."}, "[3]": {"experiment": "Pulsating Bubble Surfactometer (PBS) surface tension", "conditions": "after 5 minutes pulsation (100 cycles); 1 mg/ml phospholipid, peptide 2% of phospholipids; 0.15M NaCl; 37° C.; 20 cycles/minute; SD in parenthesis", "description": "as §1\nThe PBS equipment (Electronetics, Buffalo, N.Y.) used was essentially equivalent to that described in detail by G. Enhorning, J. Appld. Physiol. 43, 198-203, (1977). Recordings were made of the pressure gradient across the wall of a small air bubble, communicating with ambient air by means of a narrow chimney stack, but otherwise entirely surrounded by a 40 ul volume of the peptide/lipid admixture. The admixture concentration employed for these studies was 1 mg/ml total phospholipid (0.02 mg/ml total peptide) and the diluent was 0.15M NaCl.\nImmediately prior to loading the sample chamber, the diluted samples were sonicated for 15 seconds to remove any gas nuclei.\nThe pressure drop across the air-water interface was measured during pulsation by a pressure transducer, and the corresponding surface tension was determined at minimum and maximum bubble size through the application of Young's law and the Laplace equation. Measurements were all made at 37° C. and the bubble pulsed at 20 cycles/minute to render respectively a maximum (1.1 mm) and a minimum (0.8 mm) bubble diameter. (This compression/expansion corresponds to a 50% change in the surface area of the air-water interface)."}, "[4]": {"experiment": "Relative surface activity by dilution studies on the modified Wilhelmy Balance-Langmuir Trough", "conditions": "675 ug phospholipid", "description": "For the purpose of this comparison \"surface activity\" is defined as follows: For any given peptide concentration, the admixture is required to result in a minimum dynamic surface tension of less than 10 dynes/cm for each of seven consecutive expansion/compression cycles.\nInitially each of the admixtures was formulated so as to contain an equal number of moles of the individual peptide as is contained in a 0.5 mg/mL admixture of SP-B(53-78). […] Thereafter, each of these admixtures was diluted with the standard lipid mixture as described in Example 4, so as to provide doubling dilutions of the equimolar \"parent\" stock peptide admixture. The lipid concentration in all cases was maintained at 25 mg/ml.\nAssessment of relative surface activity was conducted on the modified Wilhemy-Langmuir Surface Balance. For these studies a standard volume of 27 ul of each admixture, corresponding to a total phospholipid mass of 675 ug, was applied to the Langmuir Trough with maximum dimensions of 445 sq. cm."}}, "data": [{"molecule": "B1", "values": [{"measurement": "Surface Tension Maximum", "setting": "[1]", "result": 44.0, "unit": "dynes/cm"}, {"measurement": "Surface Tension Minimum", "setting": "[1]", "result": 0.3, "unit": "dynes/cm"}, {"measurement": "Adsorption (equilibrium adsorption surface tension)", "setting": "[2]", "result": 37.5, "unit": "dynes/cm"}, {"measurement": "Surface tension Maximum (maximum bubble size)", "setting": "[3]", "result": "50.6 (1.7) dyne/cm"}, {"measurement": "Surface tension Minimum (minimum bubble size)", "setting": "[3]", "result": "4.7 (0.3) dyne/cm"}, {"measurement": "Mean Minimum Surface Tension, relative peptide concentration 1/2", "setting": "[4]; 1/2 dilution of equimolar stock with lipid mixture", "result": 1.5, "unit": "mN/m"}, {"measurement": "Mean Minimum Surface Tension, relative peptide concentration 1/4", "setting": "[4]; 1/4 dilution of equimolar stock with lipid mixture", "result": 4.5, "unit": "mN/m"}, {"measurement": "Mean Minimum Surface Tension, relative peptide concentration 1/8", "setting": "[4]; 1/8 dilution of equimolar stock with lipid mixture", "result": 21.5, "unit": "mN/m"}, {"measurement": "Mean Minimum Surface Tension, relative peptide concentration Equimolar", "setting": "[4]; equimolar to 0.5 mg/mL SP-B(53-78), 445 sq. cm trough", "result": 1.5, "unit": "mN/m"}, {"measurement": "Mean Minimum Surface Tension, relative peptide concentration 2%", "setting": "[4]; peptide 2% of solids (0.5 mg/ml), 445 sq. cm trough", "result": 1.6, "unit": "mN/m"}]}]}
